Test results as given in US20250122306A1 (SUTRO BIOPHARMA, published 2025).

B1: SRP2900-E11 (antibody, IgG1, V domains shown)
VH: EVQLVESGGGLVQPGGSLRLSCAASGFTISYYIIHWVRQAPGKGLEWVGYIDPSNGYTYYADSVKGRFTISADTSKNTAYLQMNSLRAEDTAVYYCARDVQSVSGEFDYWGQGTLVTVSS
VL: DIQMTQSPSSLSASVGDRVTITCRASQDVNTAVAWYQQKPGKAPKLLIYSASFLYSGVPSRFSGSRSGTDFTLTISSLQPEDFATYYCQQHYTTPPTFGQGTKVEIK
B2: SRP2900-F07 (antibody, IgG1, V domains shown)
VH: EVQLVESGGGLVQPGGSLRLSCAASGFTISDYTIHWVRQAPGKGLEWVGYIDPSNGYTYHADSVKGRFTISADTSKNTAYLQMNSLRAEDTAVYYCARDPQSVSSPFDYWGQGTLVTVSS
VL: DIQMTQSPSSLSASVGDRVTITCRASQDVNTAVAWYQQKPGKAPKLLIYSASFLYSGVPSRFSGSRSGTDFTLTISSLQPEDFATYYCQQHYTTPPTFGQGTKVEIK
B3: SRP2900-G04 (antibody, IgG1, V domains shown)
VH: EVQLVESGGGLVQPGGSLRLSCAASGFTTRDYVIHWVRQAPGKGLEWVGYIDPSNGYTYYADSVKGRFTISADTSKNTAYLQMNSLRAEDTAVYYCARDPQSLSSPFDYWGQGTLVTVSS
VL: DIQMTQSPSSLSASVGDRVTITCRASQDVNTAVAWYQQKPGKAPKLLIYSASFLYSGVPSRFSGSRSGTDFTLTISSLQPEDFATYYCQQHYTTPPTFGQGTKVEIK
B4: SRP2900-G10 (antibody, IgG1, V domains shown)
VH: EVQLVESGGGLVQPGGSLRLSCAASGFTIPDYIIHWVRQAPGKGLEWVGYIDPSNGYTYYADSVKGRFTISADTSKNTAYLQMNSLRAEDTAVYYCARDIQSVSGEFDYWGQGTLVTVSS
VL: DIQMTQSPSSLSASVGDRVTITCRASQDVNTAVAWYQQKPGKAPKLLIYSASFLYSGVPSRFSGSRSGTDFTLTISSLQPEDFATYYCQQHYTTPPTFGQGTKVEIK
B5: SRP2900-G01 (antibody, IgG1, V domains shown)
VH: EVQLVESGGGLVQPGGSLRLSCAASGFTIFDYTIHWVRQAPGKGLEWVGYIDPSNGYTFYADSVKGRFTISADTSKNTAYLQVNSLRAEDTAVYYCARDIQSVSGEFDYWGQGTLVTVSS
VL: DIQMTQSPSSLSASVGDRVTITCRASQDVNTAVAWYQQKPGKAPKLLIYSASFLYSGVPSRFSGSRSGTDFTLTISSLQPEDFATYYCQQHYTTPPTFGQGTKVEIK
B6: SRP2900-G08 (antibody, IgG1, V domains shown)
VH: EVQLVESGGGLVQLGGSLRLSCAASGFTIGGYIIHWVRQAPGKGLEWVGYIDPSNGYTYYADSVKGRFTISADTSKNTAYLQMNSLRAEDTAVYYCARDIQSVSGEFDYWGQGTLVTVSS
VL: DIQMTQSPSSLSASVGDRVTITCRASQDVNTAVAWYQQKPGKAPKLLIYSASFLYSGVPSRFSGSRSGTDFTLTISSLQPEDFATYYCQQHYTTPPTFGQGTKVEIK
B7: SRP2900-D02 (antibody, IgG1, V domains shown)
VH: EVQLVESGGGLVQPGGSLRLSCAASGFTISDYWIHWVRQAPGKGLEWVGYIDPYNGYTYYADSVKGRFTISADTSKNTAYLQMNSLRAEDTAVYYCARDYGSLQVFIDHWGQGTLVTVSS
VL: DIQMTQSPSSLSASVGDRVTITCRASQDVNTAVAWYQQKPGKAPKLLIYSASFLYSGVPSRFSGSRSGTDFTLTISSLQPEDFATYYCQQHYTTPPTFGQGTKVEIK
B8: SRP2900-D11 (antibody, IgG1, V domains shown)
VH: EVQLVESGGGLVQPGGSLRLSCAASGFTISDYWIHWVRQAPGKGLEWVGYIDPYNGYTYYADSVKGRFTISADTSKNTAYLQMNPLRAEDTAVYYCARDYGSLQVQLDYWGQGTLVTVSS
VL: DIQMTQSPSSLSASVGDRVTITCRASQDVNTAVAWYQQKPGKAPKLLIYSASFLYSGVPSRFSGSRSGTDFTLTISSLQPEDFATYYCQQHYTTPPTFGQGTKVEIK
B9: SRP2900-E05 (antibody, IgG1, V domains shown)
VH: EVQLVESGGGLVQPGGSLRLSCAASGFTISGYWIHWVRQAPGKGLEWVGYIDPANGFTYYADSVKGRFTISADTSKNTAYLQMNSLRAEDTAVYYCARDYGSVRVFLDYWGQGTLVTVSS
VL: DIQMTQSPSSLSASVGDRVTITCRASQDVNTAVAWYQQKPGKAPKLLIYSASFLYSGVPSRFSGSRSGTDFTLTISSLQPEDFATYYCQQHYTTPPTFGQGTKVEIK
B10: SRP2900-G09 (antibody, IgG1, V domains shown)
VH: EVQLVESGGGLVQPGGSLRLSCAASGFTISDYIIHWVRQAPGKGLEWVGYIDPSNGYTYYADSVKGRFTISADTSKNTAYLQMNSLRAEDTAVYYCARDPQSLTSPFDYWGQGTLVTVSS
VL: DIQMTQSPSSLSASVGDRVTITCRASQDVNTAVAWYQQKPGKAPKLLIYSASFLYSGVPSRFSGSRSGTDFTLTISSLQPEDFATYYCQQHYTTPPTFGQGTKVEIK
B11: SRP2900-F05 (antibody, IgG1, V domains shown)
VH: EVQLVESGGGLVQPGGSLRLSCAASGFTINDYVIHWVRQAPGKGLEWVGYIDPSNGYTYYADSVKGRFTISADTSKNTAYLQMNSLRAEDTAVYYCARDDQSLSSPFDYWGQGTLVTVSS
VL: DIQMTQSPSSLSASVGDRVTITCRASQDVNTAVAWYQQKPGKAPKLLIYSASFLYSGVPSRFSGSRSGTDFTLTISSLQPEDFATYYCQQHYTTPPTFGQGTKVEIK
B12: SRP2900-E03 (antibody, IgG1, V domains shown)
VH: EVQLVESGGGLVQPGGSLRLSCAASGFTISDYWIHWVRQAPGKGLEWVGYIDPQNGWTYYADSVKGRFTISADTSKNTAYLQMNSLRAEDTAVYYCARDYGSLEVSLDYWGQGTLVTVSS
VL: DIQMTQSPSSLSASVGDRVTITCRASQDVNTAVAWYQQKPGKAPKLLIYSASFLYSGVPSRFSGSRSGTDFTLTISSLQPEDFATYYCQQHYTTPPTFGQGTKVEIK
B13: SRP2900-E09 (antibody, IgG1, V domains shown)
VH: EVQLVESGGGLVQPGGSLRLSCAASGFTISQYWIHWVRQAPGKGLEWVGYIDPYNGYTYYADSVKGRFTISADTSKNTAHLQMNSLRAEDTAVYYCARDYGSFRVQLDYWGQGTLVTVSS
VL: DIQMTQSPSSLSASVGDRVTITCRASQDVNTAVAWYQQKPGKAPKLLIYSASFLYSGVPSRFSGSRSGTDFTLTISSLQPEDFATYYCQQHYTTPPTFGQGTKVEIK
B14: SRP2900-G06 (antibody, IgG1, V domains shown)
VH: EVQLVESGGGLVQPGGSLRLSCAASGFTISDYIIHWVRQAPGKGLEWVGYIDPSNGYTYYADSVKGRFTISADTSKNTAYLQMNSLRAEDTAVYYCARDDQSLSSPFDYWGQGTLVTVSS
VL: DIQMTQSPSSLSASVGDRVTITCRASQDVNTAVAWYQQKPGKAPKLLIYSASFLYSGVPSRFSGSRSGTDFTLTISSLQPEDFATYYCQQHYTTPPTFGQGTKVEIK
B15: SRP2900-D09 (antibody, IgG1, V domains shown)
VH: EVQLVESGGGLVQPGGSLRLSCAASGFTISGYWIHWVRQAPGKGLEWVGYIDPANGFTYYADSVKGRFTISADTSKNTAYLQMNSLRAEDTAVYYCARDYGSIQVFLDYWGQGTLVTVSS
VL: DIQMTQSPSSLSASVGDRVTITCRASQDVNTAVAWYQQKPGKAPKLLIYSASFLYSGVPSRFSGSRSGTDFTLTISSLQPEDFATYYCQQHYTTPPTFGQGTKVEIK
B16: SRP2900-E01 (antibody, IgG1, V domains shown)
VH: EVQLVESGGGLVQPGGSLRLSCAASGFTISDYWIHWVRQAPGKGLEWVGYIDPSNGYTYYADSVKGRFTISADTSKNTAYLQMNSLRAEDTAVYYCARDYGSLQVFIDYWGQGTLVTVSS
VL: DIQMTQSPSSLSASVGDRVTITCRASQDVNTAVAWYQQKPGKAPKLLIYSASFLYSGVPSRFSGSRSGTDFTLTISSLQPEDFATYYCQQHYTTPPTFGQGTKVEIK
B17: SRP2900-D05 (antibody, IgG1, V domains shown)
VH: EVQLVESGGGLVQPGGSLRLSCAASGFAIANYWIHWVRQAPGKGLEWVGYIDPYNGYTYYADSVKGRFTISADTSKNTAYLQMNSLRAEDTAVYYCARDYGSLEVSLDYWGQGTLVTVSS
VL: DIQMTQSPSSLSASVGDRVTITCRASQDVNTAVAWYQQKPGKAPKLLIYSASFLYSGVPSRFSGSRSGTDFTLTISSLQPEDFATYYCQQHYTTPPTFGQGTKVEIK
B18: SRP2900-E10 (antibody, IgG1, V domains shown)
VH: EVQLVESGGGLVQPGGSLRLSCAASGFTISDYWIHWVRQAPGKGLEWVGYIDPANGYTYYADSVKGRFTISADTSKNTAYLQMNSLRAEDTAVYYCARDYGSLHVQLDYWGQGTLVTVSS
VL: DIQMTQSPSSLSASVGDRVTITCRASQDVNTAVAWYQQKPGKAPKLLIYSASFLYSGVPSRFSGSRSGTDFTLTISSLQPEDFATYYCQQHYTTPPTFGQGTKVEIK
B19: SRP2900-D03 (antibody, IgG1, V domains shown)
VH: EVQLVESGGGLVQPGGSLRLSCAASGFTISQYWIHWVRQAPGKGLEWVGYIDPYNGYTYYADSVKGRFTISADTSKNTAYLQMNSLRAEDTAVYYCARDYGSLQVQLDYWGQGTLVTVSS
VL: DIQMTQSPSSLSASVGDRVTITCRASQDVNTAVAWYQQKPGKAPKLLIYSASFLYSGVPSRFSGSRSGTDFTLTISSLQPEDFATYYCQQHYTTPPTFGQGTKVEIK
B20: SRP2900-D08 (antibody, IgG1, V domains shown)
VH: EVQLVESGGGLVQPGGSLRLSCAASGFTISDYWIHWVRQAPGKGLEWVGYIDPYNGYTYYADSVKGRFTISADTSKNTAYLQMNSLRAEDTAVYYCARDYGSLEVSLDYWGQGTLVTVSS
VL: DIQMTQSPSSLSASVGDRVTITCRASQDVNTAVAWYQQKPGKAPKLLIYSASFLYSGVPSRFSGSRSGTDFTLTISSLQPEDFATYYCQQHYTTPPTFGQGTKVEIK
B21: SRP2900-E08 (antibody, IgG1, V domains shown)
VH: EVQLVESGGGLVQPGGSLRLSCAASGFTITDYWIHWVRQAPGKGLEWVGYIDPYNGYTYYADSVKGRFTISADTSKNTAYLQMNSLRAEDTAVYYCARDYGSLQVFIDYWGQGTLVTVSS
VL: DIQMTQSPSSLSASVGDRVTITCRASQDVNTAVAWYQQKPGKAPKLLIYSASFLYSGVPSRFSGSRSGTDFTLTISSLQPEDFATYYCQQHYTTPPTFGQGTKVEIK
B22: SRP2900-D06 (antibody, IgG1, V domains shown)
VH: EVQLVESGGGLVQPGGSLRLSCAASGFTISDYWIHWVRQAPGKGLEWVGYIDPQNGWTYYADSVKGRFTISADTSKNTAYLQMNSLRAEDTAVYYCARDYGSLTINLDYWGQGTLVTVSS
VL: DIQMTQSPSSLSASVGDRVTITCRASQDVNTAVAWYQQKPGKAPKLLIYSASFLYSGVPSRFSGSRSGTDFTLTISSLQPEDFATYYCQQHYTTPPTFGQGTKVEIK
B23: SRP2900-F04 (antibody, IgG1, V domains shown)
VH: EVQLVESGGGLVQPGGSLRLSCAASGFTISDYWIHWVRQAPGKGLEWVGYIDPYNGFTYYADSVKGRFTISADTSKNTAYLQMNSLRAEDTAVYYCARDYGSLQVFIDYWGQGTLVTVSS
VL: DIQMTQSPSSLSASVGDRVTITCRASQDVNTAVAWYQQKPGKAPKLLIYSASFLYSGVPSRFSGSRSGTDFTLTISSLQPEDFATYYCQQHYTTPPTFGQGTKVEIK
B24: SRP2900-D07 (antibody, IgG1, V domains shown)
VH: EVQLVESGGGLVQPGGSLRLSCAASGFTISDYWIHWVRQAPGKGLEWVGYIDPSNGYTYYADSVKGRFTISADTSRNTAYLQMNSLRAEDTAVYYCARDYGSLEVSLDYWGQGTLVTVSS
VL: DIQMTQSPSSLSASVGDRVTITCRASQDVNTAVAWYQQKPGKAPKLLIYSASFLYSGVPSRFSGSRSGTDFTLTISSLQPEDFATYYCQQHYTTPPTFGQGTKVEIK
B25: SRP2900-F10 (antibody, IgG1, V domains shown)
VH: EVQLVESGGGLVQPGGSLRLSCAASGFTISDYVIHWVRQAPGKGLEWVGYIDPSNGYTYYADSVKGRFTISADTSKNTAYLQMNSLRAEDTAVYYCARDPQSLFYPFDYWGQGTLVTVSS
VL: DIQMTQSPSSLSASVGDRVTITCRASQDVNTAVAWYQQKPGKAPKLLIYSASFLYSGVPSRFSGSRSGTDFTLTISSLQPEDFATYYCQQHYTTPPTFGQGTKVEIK
B26: SRP2900-D04 (antibody, IgG1, V domains shown)
VH: EVQLVESGGGLVQPGGSLRLSCAASGFTISDYWIHWVRQAPGKGLEWVGFIDPYNGYTYHADSVEGRFTISADTSKNTAYLQMNSLRAEDTAVYYCARDYGSLQVQLDYWGQGTLVTVSS
VL: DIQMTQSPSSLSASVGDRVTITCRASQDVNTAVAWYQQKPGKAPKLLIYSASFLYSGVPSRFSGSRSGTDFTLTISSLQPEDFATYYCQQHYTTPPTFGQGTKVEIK
B27: SRP2900-D10 (antibody, IgG1, V domains shown)
VH: EVQLVESGGGLVQPGGSLRLSCAASGFTISDYWIHWVRQAPGKGLEWVGFIDPKNGYTYYADSVKGRFTISAGTSKNTAYLQMNSLRAEDTAVYYCARDYGSLQVFIDYWGQGTLVTVSS
VL: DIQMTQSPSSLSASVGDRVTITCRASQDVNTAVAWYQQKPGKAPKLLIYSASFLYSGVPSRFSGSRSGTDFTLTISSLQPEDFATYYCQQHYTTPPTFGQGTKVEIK
B28: SRP2900-G07 (antibody, IgG1, V domains shown)
VH: EVQLVESGGGLVQPGGSLRLSCAASGFTISDYVIHWVRQAPGKGLEWVGYIDPSNGYTYYADSVKGRFTISADTSKNTAYLQMNSLRAEDTAVYYCARDPQSLTSPFDYWGQGTLVTVSS
VL: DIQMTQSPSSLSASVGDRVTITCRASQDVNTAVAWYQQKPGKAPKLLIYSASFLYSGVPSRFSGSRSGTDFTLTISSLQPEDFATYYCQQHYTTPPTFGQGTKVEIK
B29: SRP2900-A01 (antibody, IgG1, V domains shown)
VH: EVQLVESGGGLVQPGGSLRLSCAASGFTISSYWIHWVRQAPGKGLKWVGYIDPYNGATYYADSVKGRFTISADTSKNTAYLQMNSLRAEDTAVYYCARADYYYVDEYFDYWGQGTLVTVSS
VL: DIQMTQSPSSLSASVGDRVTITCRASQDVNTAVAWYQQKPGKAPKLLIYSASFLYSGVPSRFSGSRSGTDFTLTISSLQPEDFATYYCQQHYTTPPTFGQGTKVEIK
B30: SRP2900-E04 (antibody, IgG1, V domains shown)
VH: EVQLVESGGGLVQPGGSLRLSCAASGFTIPDYWIHWVRQAPGKGLEWVGYIDPYSGSTFYADSVKGRFTISADTSKNTAYLQMNSLRAEDTAVYYCARADYYYVDEYLDYWGQGTLVTVSS
VL: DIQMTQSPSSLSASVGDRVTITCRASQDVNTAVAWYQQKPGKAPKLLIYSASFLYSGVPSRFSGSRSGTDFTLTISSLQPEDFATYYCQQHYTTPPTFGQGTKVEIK
B31: SRP2900-A04 (antibody, IgG1, V domains shown)
VH: EVQLVESGGGLVQPGGSLRLSCAASGFTISGYWIHWVRQAPGKGLEWVGYIDPYNGATYYADSVKGRFTISADTSKNAAYLQMNSLRAEDTAVYYCARADYFYIDEYWDYWGQGTLVTVSS
VL: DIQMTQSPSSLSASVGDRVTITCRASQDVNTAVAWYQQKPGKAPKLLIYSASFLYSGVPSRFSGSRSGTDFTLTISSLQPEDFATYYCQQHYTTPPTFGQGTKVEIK
B32: SRP2900-A03 (antibody, IgG1, V domains shown)
VH: EVQLVESGGGLVQPGGSLRLSCAASGFTIPSYWIHWVRQAPGKGLEWVGYIDPANGATYYADSVKGRFTISADTSKNTAYLQMNSLRAEDTAVYYCARADYFYVDEYLDYWGQGTLVTVSS
VL: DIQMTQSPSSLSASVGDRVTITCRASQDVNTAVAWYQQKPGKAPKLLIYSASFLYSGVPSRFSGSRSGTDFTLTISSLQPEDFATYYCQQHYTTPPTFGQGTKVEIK

Target: tissue factor reagent of the Tissue Factor Activity Assay Kit (Abcam #ab108906) (UniProt P13726 33-295, limits assumed)
Sequence (P13726 33-295 limits assumed): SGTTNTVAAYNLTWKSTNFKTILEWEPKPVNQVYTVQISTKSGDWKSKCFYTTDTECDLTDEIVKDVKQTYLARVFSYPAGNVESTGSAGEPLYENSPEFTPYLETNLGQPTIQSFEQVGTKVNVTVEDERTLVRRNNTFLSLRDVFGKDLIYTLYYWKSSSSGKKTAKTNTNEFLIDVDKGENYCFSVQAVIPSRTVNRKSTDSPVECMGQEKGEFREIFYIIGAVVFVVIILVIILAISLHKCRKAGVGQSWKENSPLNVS
Test: cell-based or functional assay

| Binder | FX conversion (% inhibition), 1000 nM antibody |
| --- | --- |
| B1 | 39.9% |
| B2 | 30.3% |
| B3 | 31.2% |
| B4 | 48.7% |
| B5 | 25.1% |
| B6 | 38.9% |
| B7 | 32.1% |
| B8 | 51.4% |
| B9 | 23.5% |
| B10 | 30.4% |
| B11 | 25.1% |
| B12 | 48.7% |
| B13 | 32.2% |
| B14 | 21.4% |
| B15 | 30% |
| B16 | 40.4% |

| Binder | FX conversion (% inhibition), 1000 nM antibody |
| --- | --- |
| B17 | 33.6% |
| B18 | 50.7% |
| B19 | 37.4% |
| B20 | 44.9% |
| B21 | 45.8% |
| B22 | 46.2% |
| B23 | 47.3% |
| B24 | 47.4% |
| B25 | 32.5% |
| B26 | 46% |
| B27 | 37% |
| B28 | 38.3% |
| B29 | 37% |
| B30 | 25.9% |
| B31 | 38.6% |
| B32 | 26.3% |
